In patent US20030114402A1, “Modulators of DNA cytosine-5 methyltransferase and methods for use thereof” (The Regents of the University of California, priority 1997, published 2003):

Columns and labels:
[1] = Jones, 1996; cited from earlier work
[2] = Jones, 1996; cited from earlier work; remark: listed apart in the source
DCMTase = target: T1, DCMTase (Mus musculus, UniProt P13864); experiment: Steady-state kinetic assay: initial velocity, substrate inhibition, DNA length; format: biochemical; conditions: concentrations up to 30 times Km^AdoMet
T1 construct: DCMTase was purified from mouse erythroleukemia cells as previously described; endogenous in cells; host or cells: mouse erythroleukemia (MEL) cells; enzyme purified from them
T1 sequence (P13864 whole entry): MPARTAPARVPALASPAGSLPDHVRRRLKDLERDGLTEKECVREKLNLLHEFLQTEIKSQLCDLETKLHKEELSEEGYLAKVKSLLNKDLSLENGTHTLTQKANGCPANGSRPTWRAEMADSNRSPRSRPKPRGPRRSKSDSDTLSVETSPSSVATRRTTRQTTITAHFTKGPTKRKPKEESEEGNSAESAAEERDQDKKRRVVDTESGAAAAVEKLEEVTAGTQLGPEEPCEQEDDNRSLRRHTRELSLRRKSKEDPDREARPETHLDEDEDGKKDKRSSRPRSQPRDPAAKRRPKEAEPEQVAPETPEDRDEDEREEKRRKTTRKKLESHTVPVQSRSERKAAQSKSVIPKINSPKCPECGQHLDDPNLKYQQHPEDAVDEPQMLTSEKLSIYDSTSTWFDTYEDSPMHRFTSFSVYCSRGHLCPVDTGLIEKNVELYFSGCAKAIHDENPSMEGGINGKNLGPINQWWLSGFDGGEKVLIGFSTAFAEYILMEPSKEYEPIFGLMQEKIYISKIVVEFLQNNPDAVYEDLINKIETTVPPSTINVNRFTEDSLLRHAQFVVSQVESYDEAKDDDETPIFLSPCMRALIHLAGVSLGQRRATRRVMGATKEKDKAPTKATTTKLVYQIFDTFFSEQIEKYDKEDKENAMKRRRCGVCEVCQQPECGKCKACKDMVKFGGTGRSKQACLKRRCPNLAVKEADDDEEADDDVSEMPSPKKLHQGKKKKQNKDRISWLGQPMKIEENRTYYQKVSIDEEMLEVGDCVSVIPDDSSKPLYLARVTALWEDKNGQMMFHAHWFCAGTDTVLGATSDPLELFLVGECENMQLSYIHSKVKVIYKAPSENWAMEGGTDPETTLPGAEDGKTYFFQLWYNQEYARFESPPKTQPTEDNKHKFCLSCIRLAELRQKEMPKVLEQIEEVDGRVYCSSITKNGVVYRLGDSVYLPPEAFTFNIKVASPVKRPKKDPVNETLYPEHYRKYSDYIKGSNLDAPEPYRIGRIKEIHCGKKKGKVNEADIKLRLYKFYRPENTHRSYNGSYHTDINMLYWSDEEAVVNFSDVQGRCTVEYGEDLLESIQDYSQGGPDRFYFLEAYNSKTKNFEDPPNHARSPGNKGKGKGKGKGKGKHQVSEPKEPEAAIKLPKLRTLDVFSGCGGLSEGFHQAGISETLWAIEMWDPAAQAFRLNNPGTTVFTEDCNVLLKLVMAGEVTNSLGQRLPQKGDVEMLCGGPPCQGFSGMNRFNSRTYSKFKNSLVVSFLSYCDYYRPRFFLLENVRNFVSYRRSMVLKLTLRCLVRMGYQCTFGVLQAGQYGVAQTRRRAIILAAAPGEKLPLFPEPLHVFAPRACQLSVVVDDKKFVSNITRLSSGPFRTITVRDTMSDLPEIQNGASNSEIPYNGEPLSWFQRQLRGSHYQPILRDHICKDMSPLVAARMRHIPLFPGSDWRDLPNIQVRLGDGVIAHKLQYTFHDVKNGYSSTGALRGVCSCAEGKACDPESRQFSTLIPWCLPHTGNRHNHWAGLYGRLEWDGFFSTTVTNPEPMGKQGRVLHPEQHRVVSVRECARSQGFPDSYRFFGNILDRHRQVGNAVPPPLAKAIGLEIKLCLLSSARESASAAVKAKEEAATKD
Experimental: After preincubation at room temperature for up to 10 minutes, reactions were initiated by the addition of poly(dI.dC:dI.dC) and, if indicated, inhibitor DNA or reaction products. […] Single-stranded DNA was heated to 90° C. and quick cooled on ice, prior to initiation of the reaction. Freeze-thawed DNA produced equivalent results. Incubations were at 37° C. for 60 minutes. The poly(dI.dC:dI.dC) concentrations were 2.0, 4.0, 8.0, 16, 35, 80, 160, 250, 400, 700 and 1000 pM. In some experiments, GC-box a/b was the substrate, using 100 nM DCMTase and DNA concentrations of 0.20, 0.40, 1.0, 2.0, 4.0, 8.0, 15, 23 and 35 μM. […] The radioactivity above the background, determined from assays without added poly(dI.dC:dI.dC), was converted to initial velocities and expressed as picomoles of methyl groups transferred to poly(dI.dC:dI.dC) per hour and plotted in double reciprocal form. […]
The Michaelis-Menton equation was used for studies into DNA length contributions to catalysis using KaliedaGraph 2.1.2 (Synergy Software). […] All steady-state data were analyzed using regression analyses of the appropriate initial velocity equation, listed below, using the Cleland programs (Cleland, W. W., 1979, Statistical analysis of enzyme kinetic data. Methods in Enzymol. 63:103-138). […]

[3] = target: T2, DNA cytosine-5 methyltransferase (DCMTase, Dnmt1) (Mus musculus, UniProt P13864 P13864:1-1620); experiment: inhibition; Kii, uncompetitive with poly(dIdC:dIdC); 25 +/- 10 nM competitive with AdoMet; calculated KI 2.5 nM for DCMTase:poly(dIdC:dIdC) complex; Tris pH 8.0, 10 mM EDTA; conditions: tags: none; purified from mouse erythroleukemia (MEL) cells
T2 sequence (P13864 whole entry, one chain of several): as the sequence (P13864 whole entry) above

[4] = target: T2, DNA cytosine-5 methyltransferase …; experiment: EMSA; unit printed as mM (text indicates micromolar); free enzyme; conditions: tags: none; purified from mouse erythroleukemia (MEL) cells
Experimental: (§1) Gel mobility shift assays (GMSA) were performed with minor revisions to the original procedures (Fried, M., & Crothers, D. M., 1981, Equilibria and kinetics of the lac repressor-operator interactions by polyacrylamide gel electrophoresis, Nucleic Acids Res. 9:6505-6525; Garner, M. M. & Revzin, A., 1981, A gel electrophoresis method for quantifying the binding proteins to specific DNA regions: applications to components of the Escherichia coli lactose operon regulatory system, Nucleic Acids Res. 13:3047-3060). […]
(§2) Steady-state kinetic analyses of the DCMTase with the same 30 base-pair DNA substrates used in these studies indicate that Kₘ^DNA is 1000- to 50,000-fold higher (Flynn, J., et al., 1996, Murine DNA cytosine-C5 methyltransferase: Pre-steady- and steady-state kinetic analyses with regulatory DNA sequences, Biochemistry 35:7308-7315) than the DNA concentrations used to generate FIG. 2 and used by Reale et al, 1995, supra. […] Therefore, the stability of protein:DNA was determined by keeping the enzyme at a constant concentration (100 nM) and varying the amount of added DNA (Dubey & Roberts, 1992, supra).

[5] = target: T2, DNA cytosine-5 methyltransferase …; experiment: inhibition; substrate inhibition; KmDNA 0.31 +/- 0.13 µM; conditions: tags: none; purified from mouse erythroleukemia (MEL) cells; label: 32P (gel shift)
Experimental: To distinguish between this and alternative explanations, a short 30 base-pair DNA substrate was tested for inhibition at high concentrations. […] Initial velocity data for both substrates were fit to equation 1, which is a standard equation for analyzing substrate inhibition. Kₘ^DNA was determined to be 5.5+/−0.9 pM and 0.31+/−0.13 μM, and Kᵢ^DNA was 1010+/−170 pM and 43+/−22 μM for poly(dI.dC:dI.dC) and GC-box a/b, respectively (Table 3). In both cases, DNA concentrations greater than 20 times Kₘ^DNA caused substrate inhibition. AdoMet utilization was calculated to be less than 0.5%. Product inhibition by S-adenosyl homocysteine formation is therefore unlikely. AdoMet substrate inhibition was not observed at concentrations up to 30 times Kₘ^AdoMet. The substrate inhibition observed implicates a second DNA molecule binding to the enzyme and inhibiting catalysis.

[6] = target: T2, DNA cytosine-5 methyltransferase …; experiment: EMSA; unit printed as mM (text indicates micromolar); Hepes pH 7.4, 10 mM EDTA, on ice; conditions: tags: none; purified from mouse erythroleukemia (MEL) cells; label: 32P (gel shift)
Experimental: as §1, §2

[7] = target: T2, DNA cytosine-5 methyltransferase …; experiment: EMSA; unit printed as mM (text indicates micromolar); conditions: tags: none; purified from mouse erythroleukemia (MEL) cells
Experimental: Gel mobility shift assays (GMSA) were performed with minor revisions to the original procedures (Fried, M., & Crothers, D. M., 1981, Equilibria and kinetics of the lac repressor-operator interactions by polyacrylamide gel electrophoresis, Nucleic Acids Res. 9:6505-6525; Garner, M. M. & Revzin, A., 1981, A gel electrophoresis method for quantifying the binding proteins to specific DNA regions: applications to components of the Escherichia coli lactose operon regulatory system, Nucleic Acids Res. 13:3047-3060). All reactions were done in 100 mM Hepes pH 7.4, 10 mM EDTA, 10 mM DTT, […], 5% glycerol using the indicated P-labeled DNA and DCMTase concentrations, incubated on ice for 5 minutes and loaded on a 1×TBE(89 mM Tris-HCl pH 8.3, 89 mM boric acid, 2 mM EDTA), 6% polyacrylamide gel. Electrophoresis was done at 250 V, 9 mA for 2 hours at 4° C. and the dried gel was exposed to film overnight. The reaction conditions for buffer, temperature, incubation time, cofactor addition and gel composition have all been optimized. Only slightly better complex resolution was obtained under the listed conditions compared to a 10 minute incubation at 37° C. prior to gel loading at room temperature and containing either cofactor S-adenosyl-L-methionine, product S-adenosyl-L-homocysteine, or the AdoMet analog sinefungin. Hepes reaction buffer at pH 7.4 produced sharper banding than Tris-HCl at pH 8.0. […] Subsequent assays used a limiting and constant enzyme concentration with varying DNA concentrations.
as §2

[8] = target: T2, DNA cytosine-5 methyltransferase …; experiment: inhibition; Kis, noncompetitive with poly(dIdC:dIdC); Kii 6800 +/- 1200 nM; Tris pH 8.0, 37 C; conditions: tags: none; purified from mouse erythroleukemia (MEL) cells
Experimental: For these reasons it was presumed that single-stranded GC-box substrates could act as dead-end inhibitors of the reaction with poly(dI.dC:dI.dC). Dead-end inhibitors can provide a strong methodology for assessing whether a kinetic mechanism is random or ordered. Inhibition of poly(dI.dC:dI.dC) methylation by single-stranded GC-box b was studied at 15 μM AdoMet. The data were best fit by equation 5, a standard equation for noncompetitive inhibition, and generated the intersecting double reciprocal pattern shown in FIG. 13. The inhibition constants were determined to be Kᵢₛ=3.6+/−1.5 μM and Kᵢᵢ=6.8+/−1.2 μM (Table 4). Kᵢᵢ is the inhibition constant associated with an intercept effect and Kᵢₛ is the inhibition constant associated with a slope effect from families of double reciprocal plots.

Nc1ncn([C@H]2C[C@H](O)[C@@H](CO)O2)c(=O)n1 [5-Aza-deoxycytidine, 5-aza-2′-deoxycytidine]
carcinogenicity and mutagenicity [1]: may be carcinogenic as well as mutagenic
stability in solution [2]: unstable in solution

C[S+](CC[C@H](N)C(=O)[O-])C[C@H]1O[C@@H](n2cnc3c(N)ncnc32)[C@H](O)[C@@H]1O (stereo partly drawn) [AdoMet, S-adenosyl-L-methionine]
AdoMet substrate inhibition (DCMTase): not observed

B1: GC-box bMET (ssDNA)
DNA: CTGGATCCTTGCCCCGCCCCTTGAATTCCC
modifications: 5mC at position 15 (central CpG)
Ki [3]: 0.02 µM
Kd [4]: 0.88 µM

B2: GC-box a/b (dsDNA)
DNA 1: GGGAATTCAAGGGGCGGGGCAAGGATCCAG
DNA 2: B1 DNA
Ki [5]: 43 µM
Kd [6]: 0.42 µM

B3: GC-box b (ssDNA)
DNA: B1 DNA
Kd [7]: 1.3 µM
Ki [8]: 3.6 µM
